# Experimental data from patent US20150232544A1.
# Positions count from the first letter of the chain named.
# B1: humanized IPN002 variant VH1/Vk2 (antibody, V domains shown)
# VH: EVHLVESGGALVKPGGSLRLSCAASGFSFSKYGMSWVRQAPGKGLEWVATISSSGSRTYYPDSVKGRFTISRDNAKNTLYLQMSSLKSEDTAMYYCSISWDGAMDYWGQGTSVTVSS
# VL: DVVMTQSPLSLPVTLGQPASISCKSSQSIVHSNGNTYLEWYLQKPGQSPQLLVYKVSNRFSGVPDRFSGSGSGTDFTLKISRVEAEDVGTYYCFQGSLVPWAFGGGTKVEIK
# B2: humanized IPN002 variant VH4/Vk2 (antibody, V domains shown)
# VH: B1 VH with H3Q, S84N, K87R, S88A, S97A, S112T
# VL: B1 VL
# B3: humanized IPN002 variant VH3/Vk1 (antibody, V domains shown)
# VH: B1 VH with H3Q, S84N, K87R, S88A, S112T
# VL: B1 VL with V3L
# B4: humanized IPN002 variant VH4/Vk1 (antibody, V domains shown)
# VH: B1 VH with H3Q, S84N, K87R, S88A, S97A, S112T
# VL: B1 VL with V3L
# B5: humanized IPN002 variant VH3/Vk2 (antibody, V domains shown)
# VH: B1 VH with H3Q, S84N, K87R, S88A, S112T
# VL: B1 VL
# B6: humanized IPN002 variant VH2/Vk3 (antibody, V domains shown)
# VH: B1 VH with S84N, K87R, S88A, S112T
# VL: B1 VL with T90V
# B7: humanized IPN002 variant VH2/Vk1 (antibody, V domains shown)
# VH: B1 VH with S84N, K87R, S88A, S112T
# VL: B1 VL with V3L
# B8: humanized IPN002 variant VH1/Vk1 (antibody, V domains shown)
# VH: B1 VH
# VL: B1 VL with V3L
# B9: humanized IPN002 variant VH4/Vk4 (antibody, V domains shown)
# VH: B1 VH with H3Q, S84N, K87R, S88A, S97A, S112T
# VL: B1 VL with V53I, T90V
# B10: humanized IPN002 variant VH1/Vk4 (antibody, V domains shown)
# VH: B1 VH
# VL: B1 VL with V53I, T90V
# B11: humanized IPN002 variant VH2/Vk4 (antibody, V domains shown)
# VH: B1 VH with S84N, K87R, S88A, S112T
# VL: B1 VL with V53I, T90V
# B12: humanized IPN002 variant VH4/Vk3 (antibody, V domains shown)
# VH: B1 VH with H3Q, S84N, K87R, S88A, S97A, S112T
# VL: B1 VL with T90V
# B13: humanized IPN002 variant VH2/Vk2 (antibody, V domains shown)
# VH: B1 VH with S84N, K87R, S88A, S112T
# VL: B1 VL
# B14: humanized IPN002 variant VH3/Vk4 (antibody, V domains shown)
# VH: B1 VH with H3Q, S84N, K87R, S88A, S112T
# VL: B1 VL with V53I, T90V
# B15: humanized IPN002 variant VH3/Vk3 (antibody, V domains shown)
# VH: B1 VH with H3Q, S84N, K87R, S88A, S112T
# VL: B1 VL with T90V
# B16: humanized IPN002 variant VH1/Vk3 (antibody, V domains shown)
# VH: B1 VH
# VL: B1 VL with T90V
# Molecular target: eTau1b (UniProt P10636)
# Test: relative binding affinity, method not named; eTau 1b
# Chain of UniProt P10636 (P10636 other isoform, or with tags, fused parts or gaps): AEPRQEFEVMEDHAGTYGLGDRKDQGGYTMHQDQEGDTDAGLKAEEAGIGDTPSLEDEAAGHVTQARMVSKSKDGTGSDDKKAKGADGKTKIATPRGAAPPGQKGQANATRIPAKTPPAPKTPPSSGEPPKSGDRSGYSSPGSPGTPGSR
row,Binder,Kd [nM]
1,B1,0.558
2,B2,0.483
3,B3,0.529
4,B4,0.359
5,B5,0.614
6,B6,0.287
7,B7,0.215
8,B8,0.737
9,B9,0.535
10,B10,0.597
11,B11,0.52
12,B12,0.313
13,B13,0.229
14,B14,0.382
15,B15,0.689
16,B16,0.59

# Molecular target: eTau2 (UniProt P10636)
# Test: relative binding affinity, method not named; eTau 2
row,Binder,Kd [nM]
1,B1,0.361
2,B2,0.451
3,B3,0.705
4,B4,0.405
5,B5,0.408
6,B6,0.261
7,B7,0.225
8,B8,0.465
9,B9,0.564
10,B10,0.427
11,B11,0.354
12,B12,0.473
13,B13,0.283
14,B14,0.447
15,B15,0.471
16,B16,0.444
